Consider nine molecules from US11193155B2, “Designer α 6-fucosidase mutants enable direct core fucosylation of intact N-glycopeptides and N-glycoproteins” (UNIVERSITY OF MARYLAND, COLLEGE PARK, priority 2016, dated 2021).

Series [1] concerns the target T1, Aleuria aurantia lectin (AAL) (Aleuria aurantia, UniProt P18891).
T1 sequence (P18891 1-313): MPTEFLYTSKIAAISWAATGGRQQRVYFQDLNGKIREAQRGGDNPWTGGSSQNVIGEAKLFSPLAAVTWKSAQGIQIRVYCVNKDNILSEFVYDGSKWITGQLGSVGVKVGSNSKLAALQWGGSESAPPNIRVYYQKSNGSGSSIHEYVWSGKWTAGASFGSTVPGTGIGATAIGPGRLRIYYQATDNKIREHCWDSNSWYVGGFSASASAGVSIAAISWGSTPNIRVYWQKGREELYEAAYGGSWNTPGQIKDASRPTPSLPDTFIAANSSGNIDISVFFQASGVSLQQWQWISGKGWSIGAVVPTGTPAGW
Nature of the series: ELISA analysis of binding between lectin AAL and glycoproteins or released N-glycans. Conditions: for AAL binding: glycoprotein coated on plate; for EC50: glycoprotein coated on plate (10 μg/ml), AAL-biotin serial dilution. An excerpt:
FIG. 9 ELISA analysis of the binding between lectin AAL and glycoproteins or released N-glycans. The glycoproteins or released N-glycans (tagged with Fmoc) were immobilized on the plates and probed by serial dilutions of the lectin. A) AAL binding with RNase B (20) and fucosylated RNase B (21); B) AAL binding with non-fucosylated glycoform of rituximab (28) and fucosylated rituximab glycoform (30); C) AAL binding with the PNGase F released high-mannose N-glycans released from 20 and 21; D) ALL binding with the PNGase F released complex type N-glycans from 28 and 30.
The glycoprotein (20, 21, 28 or 30) (10 μg/ml) in a phosphate buffer (pH 7.5) was coated onto a 96-well plate (UltraCruz®) at 4° C. for overnight. After wash twice, 2% bovine serum albumin in PBS containing Tween® 20 (PBST buffer) was added to block the plate for 2 h. Subsequently, after washed twice again, a serial dilution of AAL-biotin ranging from 0.1 μM to 1000 μM in PBST buffer was added and the plate was incubated for 1 h. After washing, peroxidase streptavidin (2 μg/mL) (Jackson ImmunoResearch Inc.) was added and incubated for 1 h. Finally, 100 μL of substrate, 3, 3′, 5, 5′-tetramethylbenzidine was added for signal development. The reaction was stopped by the adding 100 μL of 20% sulfuric acid (v/v). The absorbance at 450 nm was measured using SpectraMax M5 microplate reader (Molecular Devices). For the binding of the N-glycans, the Fmoc-labeled N-glycans released from 20, 21, 28 and 30 (1 μg/ml) were coated on the plate and the ELISA analysis was performed in the same manner as that of the glycoproteins.
For orientation: In an ELISA, binding on a coated surface is turned into a signal by an enzyme label.

Another series is described as follows: physchem. Type of series: physicochemical. Conditions: buffer, pH 7.4. The source says: Initially, the D200 mutants were examined as potential glycosynthases using two types of activated fucosyl donors with opposite anomeric configuration as substrates. For nucleophile mutant such as D200G, a fucosyl fluoride with reversed anomeric configuration, β-fucosyl fluoride or β-fucosyl azide, should be applied to mimic the enzyme-substrate intermediate^52,53,67. However, β-glycosyl fluorides are quite unstable and are subjected to spontaneous hydrolysis in aq. solutions^42. Indeed, most successful glycosynthases have been derived so far from retaining β-glycosidases that take the α-glycosyl fluoride as donor substrate. […] Thus, the potential glycosylation activity of the nucleophilic mutants, including D200G, D200S, D200A, and D200S, were tested using both the β-glycosyl azide (1) and the β-glycosyl fluoride (2) as the donor substrates and the Fmoc-Asn(GlcNAc)-OH (4)^69 as the acceptor substrate (FIG. 3). The reactions were run with different amounts of enzymes and were monitored by reverse-phase HPLC analysis.

The conditions of series [2]: buffer; cited from earlier work.
Series [3] in a line: Transglycosylation kinetics of AlfC α-fucosidase mutants. The format is biochemical. Conditions: apparent; donor sugar 0.2 to 2.0 mM, acceptor 2.0 mM, sodium phosphate 0.1M pH 7.5, 42° C. The procedure: The kinetic studies on transglycosylation were carried out at 42° C. in sodium phosphate (0.1 M, pH 7.5). The transglycosylation product was detected and quantitated by HPLC analysis. The concentration of the donor substrates (1-3) was varied from 0.2 to 2.0 mM, while that of the acceptor (4) was fixed (2 mM). KM and kcat values (strictly, apparent KM and kcat, as they were determined at a fixed, nonsaturating, co-substrate concentration) were determined by fitting the initial velocity curves to the Michaelis-Menten equation by nonlinear regression in GraFit.

Series [4] can be described thus: Glycoligase (transfucosylation) activity on acceptor 4, pH and temperature profiles. Type of series: biochemical. Conditions: donor 3, acceptor 4, pH 7.5, 42° C. The procedure:
A) pH profile; B) temperature profile of its catalysis. […] The transglycosylation product was quantitated by HPLC analysis. To investigate temperature profile of AlfC α-fucosidase in transglycosylation reaction, a mixture of donor sugar 3 (20 mM), acceptor sugar (4) (10 mM) and enzyme AlfC E274G (0.2 mg/mL) was incubated in a PBS buffer (0.1 M, pH7.5) containing 5% DMSO. The reactions were carried out for 20 min at various temperatures, including 25° C., 30° C., 35° C., 40° C., 45° C., 50° C. and 55° C. The transglycosylation product was quantitated by HPLC analysis.
Next, the potential glyco-ligase activity was tested of the general acid/base residue mutants using the α-fucosyl fluoride (3) as the donor substrate (FIG. 3).

A short description of series [5]: Hydrolysis of α-fucosyl fluoride in the absence of the GlcNAc acceptor. The format is biochemical.
In the next series the test system is rituximab. The experiment in a line: Defucosylation of rituximab by wild-type AlfC α-fucosidase. The format is biochemical. An excerpt:
The potent transfucosylation activity of AlfC α-fucoligase towards glycopeptides and glycoproteins prompted further exploring of its application for glycoengineering of therapeutic monoclonal antibodies. Core fucosylation of the Fc domain N-glycans plays a pivotal role in modulating the functions of antibodies and their therapeutic efficacy^8,74. It was previously developed by the current inventors a chemoenzymatic Fc glycan remodeling method that consists of deglycosylation and glycosynthase-catalyzed glycan transfer to produce homogeneous Fc glycoforms^65,66,75. If the fucoligase mutant could act on intact antibody, then it would further expand the repertoire of the toolbox for antibody Fc glycan engineering. To test this possibility, rituximab (26) was selected as a model system. First, rituximab was deglycosylated with Endo-S followed by defucosylation with the wild type AlfC α-fucosidase to give the GlcNAc-rituximab (27) (FIG. 7). […] The non-fucosylated complex type glycoform (28) of rituximab was synthesized by the EndoS-D233Q catalyzed glycosylation with glycan oxazoline (24) as the donor, following previously published procedure^75. These two glycoforms (27 and 28) were used as potential substrates for examining the AlfC fucoligase mutants. […] The product was readily isolated by protein A affinity chromatography. To confirm the identity of the Fucα1,6GlcNAc-rituximab (29), the product was treated with protease IdeS which specifically hydrolyzes IgG antibody to release the monomeric Fc domain, and the released Fc was analyzed by ESI-MS. […] As described previously, Fucα1,6GlcNAc-rituximab (29) was an excellent substrate for EndoS-D233Q^75. Indeed, incubation of 29 with EndoS-D233Q and glycan oxazoline (24) gave the expected core-fucosylated complex type glycoform of rituximab (30) in excellent yield, further confirming that the 29 was the expected Fucα1,6GlcNAc-rituximab.
Finally, the direct fucosylation of the intact rituximab (28) was tested carrying the full size complex type Fc N-glycans. […]

For the molecule “28: non-fucosylated complex type glycoform of rituximab [compound 28]”, the AAL binding entry in series [1] was “did not show any detectable affinity”.

Broadly, the EC50 is the concentration at which the effect is half-maximal. Take “30: core-fucosylated complex type glycoform of rituximab [compound 30]”: in series [1], the AAL binding entry is on record as “specific recognition” and the concentration giving a half-maximal response (EC50) came to 15 µM. For the same molecule, in series [1] (glycoproteins), the “affinity for AAL relative to core-fucosylated RNase B (21)” value is given as “about 17 fold”.

What is called half-life is how long it takes for the measured level to halve. Take `C[C@@H]1O[C@H](F)[C@@H](F)[C@H](O)[C@@H]1O` [compound 2, 2-deoxy-2-fluoro-β-fucosyl fluoride]: in the series “physchem”, the half-life was 6 h.

As for `C[C@@H]1O[C@H](F)[C@@H](O)[C@H](O)[C@@H]1O` [β-fucosyl fluoride], in series [2], the “half-life (spontaneous hydrolysis)” value is “ca. 20 min”.

B1: E274G: Lactobacillus casei α1,6-fucosidase (AlfC) mutant at general acid/base residue E274 (protein)
chain: MNDNVAWFKQAKYGMMIHWGLYSLLAGEYRGESSSAYAEWIQSKFQIPNAEYGNLATAFNPLYFDAKKIVALAKQCGMQYLVVTTKHHDGFAMYHSKVDAYNVYDATPFHRDIIGELAEACQKAGLKFGLYYSQDLDWHDPNGGGYKSNDVETAGTTWDNSWDFPDEDQKNFDLCFDNKILPQIKEIMSNYGDIATAWFDVPMTLSEAQSQTIYDTVRELQPNCLINSRLGNGKYDFVSLGDNEIPKNKEDMNKTDVDYNEITGFKPSPLGLYGTAGTINDSWGFSYHDQNWKTPRTLYRYKQHLNDFGINYLLNVGLDPLGRVPMMAEENLLAAKALEDEANRL
The term Km denotes the substrate concentration at which the rate is half of its maximum. Consider B1, for which, in series [3], the Km was 250 ± 30 µM and the kcat is 1.38 ± 0.15 × 10^2 min^−1. In addition, the “catalytic activity to transfer fucose to GlcNAc of acceptor 4” value in series [4] is on record as “excellent catalysts for fucosylation”. The “hydrolysis of α-fucosyl fluoride” value in series [5] is reported as “only hydrolyzed α-fucosyl fluoride slowly”.

B2: wild type AlfC: α1,6-fucosidase from Lactobacillus casei (AlfC), wild type (protein, listed as Lactobacillus casei)
chain: MNDNVAWFKQAKYGMMIHWGLYSLLAGEYRGESSSAYAEWIQSKFQIPNAEYGNLATAFNPLYFDAKKIVALAKQCGMQYLVVTTKHHDGFAMYHSKVDAYNVYDATPFHRDIIGELAEACQKAGLKFGLYYSQDLDWHDPNGGGYKSNDVETAGTTWDNSWDFPDEDQKNFDLCFDNKILPQIKEIMSNYGDIATAWFDVPMTLSEAQSQTIYDTVRELQPNCLINSRLGNGKYDFVSLGDNEIPKNKEDMNKTDVDYNEITGFKPSPLGLYETAGTINDSWGFSYHDQNWKTPRTLYRYKQHLNDFGINYLLNVGLDPLGRVPMMAEENLLAAKALEDEANRL
Consider B2, for which, in series [5], the “hydrolysis of α-fucosyl fluoride” value is “could quickly hydrolyze the donor substrate”. The “hydrolytic (defucosylation) activity” value is reported as “almost no activity” in the series with rituximab (intact rituximab, before Endo-S treatment, listed as wild type AlfC α-fucosidase); “unable to remove the fucose moiety” in the series with rituximab (intact rituximab, before Endo-S treatment, listed as wild-type AlfC α-fucosidase); “good hydrolytic activity” with rituximab (rituximab after Endo-S deglycosylation).

B3: E274S: Lactobacillus casei α1,6-fucosidase (AlfC) mutant at general acid/base residue E274 (protein)
chain: MNDNVAWFKQAKYGMMIHWGLYSLLAGEYRGESSSAYAEWIQSKFQIPNAEYGNLATAFNPLYFDAKKIVALAKQCGMQYLVVTTKHHDGFAMYHSKVDAYNVYDATPFHRDIIGELAEACQKAGLKFGLYYSQDLDWHDPNGGGYKSNDVETAGTTWDNSWDFPDEDQKNFDLCFDNKILPQIKEIMSNYGDIATAWFDVPMTLSEAQSQTIYDTVRELQPNCLINSRLGNGKYDFVSLGDNEIPKNKEDMNKTDVDYNEITGFKPSPLGLYSTAGTINDSWGFSYHDQNWKTPRTLYRYKQHLNDFGINYLLNVGLDPLGRVPMMAEENLLAAKALEDEANRL
Regarding B3, in series [3], the Km was 260 ± 30 µM and the kcat was 2.42 ± 0.14 × 10^2 min^−1. In addition, the “catalytic activity to transfer fucose to GlcNAc of acceptor 4” value in series [4] is listed as “excellent catalysts for fucosylation”. Also, the “hydrolysis of α-fucosyl fluoride” value in series [5] is listed as “only hydrolyzed α-fucosyl fluoride slowly”.

B4: 21: core-fucosylated RNase B glycoforms carrying core fucosylated high-mannose glycans (protein, UniProt P61823 27-150, looked up)
Ribonuclease pancreatic: KETAAAKFERQHMDSSTSAASSSNYCNQMMKSRNLTKDRCKPVNTFVHESLADVQAVCSQKNVACKNGQTNCYQSYSTMSITDCRETGSSKYPNCAYKTTQANKHIIVACEGNPYVPVHFDASV
modifications: core-fucosylated high-mannose glycans
In the case of B4, in series [1], the AAL binding entry was “specific binding” and the concentration for a half-maximal effect (EC50) turned out to be 275 µM.

B5: 20: bovine ribonuclease B, natural glycoprotein with heterogeneous high-mannose type N-glycan (protein)
chain: KETAAAKFERQHMDSSTSAASSSNYCNQMMKSRNLTKDRCKPVNTFVHESLADVQAVCSQKNVACKNGQTNCYQSYSTMSITDCRETGSSKYPNCAYKTTQANKHIIVACEGNPYVPVHFDASV
Regarding B5, the AAL binding entry in series [1] was “didn't show any binding”.
